What was measured:
[1] = target: HLA DRB5 01:01 (Homo sapiens, UniProt P01903+Q30154); experiment: Competitive binding assay of overlapping peptides to HLA; conditions: competitive binding to HLA DRB5 01:01, compared with reference H1N1 influenza peptide
[2] = target: HLA DRB5 01:01; experiment: competitive HLA binding assay (legend: - No binding)

| Molecule | Binding affinity [1] | binding result [2] |
| --- | --- | --- |
| Aa 141-155-SEQ ID NO: 1 (SSLLLPFFLLPSFFN; listed as Homo sapiens) [FABP7 #32] | − |  |
| Aa 146-160-SEQ ID NO: 1 (PFFLLPSFFNNTSLA; listed as Homo sapiens) [FABP7 #33] | ++ |  |
| Aa 152-166-SEQ ID NO: 1 (SFFNNTSLARFFNYM; listed as Homo sapiens) [FABP7 #34] | + |  |
| MVSNDNSPFFLVFFS (also called Pool 5 FABP7) [FABP7 peptide #27 (Aa 116-130 of SEQ ID NO: 1)] |  | no binding |
| KRSKRKKEVPFFGRR (also called Pool 2 PROK2) [PROK2 peptide #13 (Aa 88-102 of SEQ ID NO: 2)] |  | no binding |
| GRRMHHTCPCLPGLA (also called Pool 3 PROK2) [PROK2 peptide #18 (Aa 100-114 of SEQ ID NO: 2)] |  | no binding |
| DETTADDRNCKSVVS (also called Pool 3 FABP7) [FABP7 peptide #15 (Aa 72-86 of SEQ ID NO: 1)] |  | no binding |
| GKMVMTLTFGDVVAV (FABP7 isoform 1 peptide; also called Pool 4 FABP7) [FABP7 peptide #23 (Aa 112-126 of SEQ ID NO: 6)] |  | no binding |
| GNGRQERRKRKRSKR (also called Pool 2 PROK2) [PROK2 peptide #11 (Aa 78-92 of SEQ ID NO: 2)] |  | no binding |
| ACDKDSQCGGGMCCA (also called Pool 1 PROK2) [PROK2 peptide #2 (Aa 33-47 of SEQ ID NO: 2)] |  | no binding |
| HLLPSSSLLLPFFLL (also called Pool 6 FABP7) [FABP7 peptide #31 (Aa 136-150 of SEQ ID NO: 1)] |  | no binding |
| VREIKDGKMVMVSND (also called Pool 5 FABP7) [FABP7 peptide #25 (Aa 106-120 of SEQ ID NO: 1)] |  | no binding |
| AVITGACDKDSQCGG (also called Pool 1 PROK2) [PROK2 peptide #1 (Aa 28-42 of SEQ ID NO: 2)] |  | no binding |
| KALGVGFATRQVGNV (also called Pool 1 FABP7) [FABP7 peptide #5 (Aa 22-36 of SEQ ID NO: 1)] |  | no binding |
| SSLLLPFFLLPSFFN (also called Pool 6 FABP7) [FABP7 peptide #32 (Aa 141-155 of SEQ ID NO: 1)] |  | no binding |
| QVGNVTKPTVIISQE (also called Pool 2 FABP7) [FABP7 peptide #7 (Aa 32-46 of SEQ ID NO: 1)] |  | no binding |
| LDGDKLVHIQKWDGK (also called Pool 3 FABP7) [FABP7 peptide #18 (Aa 87-101 of SEQ ID NO: 1)] |  | no binding |
| SQCGGGMCCAVSIWV (also called Pool 1 PROK2) [PROK2 peptide #3 (Aa 38-52 of SEQ ID NO: 2)] |  | no binding |
| DDRNCKSVVSLDGDK (also called Pool 3 FABP7) [FABP7 peptide #16 (Aa 77-91 of SEQ ID NO: 1)] |  | no binding |
| REIKDGKMVMTLTFG (FABP7 isoform 1 peptide; also called Pool 4 FABP7) [FABP7 peptide #22 (Aa 107-121 of SEQ ID NO: 6)] |  | no binding |
| ERRKRKRSKRKKEVP (also called Pool 2 PROK2) [PROK2 peptide #12 (Aa 83-97 of SEQ ID NO: 2)] |  | no binding |
| LVHIQKWDGKETNFV (also called Pool 4 FABP7) [FABP7 peptide #19 (Aa 92-106 of SEQ ID NO: 1)] |  | no binding |
| KLGDSCHPLTRKNNF (also called Pool 2 PROK2) [PROK2 peptide #8 (Aa 63-77 of SEQ ID NO: 2)] |  | no binding |
| TNSQNFDEYMKALGV (also called Pool 1 FABP7) [FABP7 peptide #3 (Aa 12-26 of SEQ ID NO: 1)] |  | no binding |
| KSVVSLDGDKLVHIQ (also called Pool 3 FABP7) [FABP7 peptide #17 (Aa 82-96 of SEQ ID NO: 1)] |  | no binding |
| CTPMGKLGDSCHPLT (also called Pool 1 PROK2) [PROK2 peptide #7 (Aa 58-72 of SEQ ID NO: 2)] |  | no binding |
| KWDGKETNFVREIKD (also called Pool 4 FABP7) [FABP7 peptide #20 (Aa 97-111 of SEQ ID NO: 1)] |  | no binding |
